# Test results: patent US20240279315A1 (priority 2023, published 2024)
# Where two headings read alike, the source gives them in different places.
# Key:
# [1] = tested on: influenza A/Hong Kong/2369/2009 (H1N1pdm) H275Y; set-up: species or system BALB/c mice; details: mouse, in vivo
# [2] = target: hemagglutinin (HA) of influenza A/Michigan/45/2015 pH1N1 (influenza A virus A/Michigan/45/2015 (H1N1)); test: cell-based or functional assay
# [3] = target: hemagglutinin (HA) of influenza A/Guangdong-maonan/2019 H1N1 (influenza A virus A/Guangdong-maonan/2019 (H1N1)); test: cell-based or functional assay
# [4] = target: hemagglutinin (HA) of influenza A/Hong Kong/2671/2019 (Egg) H3N2 (influenza A virus A/Hong Kong/2671/2019 (H3N2)); test: cell-based or functional assay
# [5] = target: hemagglutinin (HA) of influenza A/Guangdong-maonan/2019 H1N1 (influenza A virus A/Guangdong-maonan/2019 (H1N1)); test: cell-based or functional assay; remark: listed apart in the source
# [6] = target: hemagglutinin (HA) of influenza A/Michigan/45/2015 pH1N1 (influenza A virus A/Michigan/45/2015 (H1N1)); test: cell-based or functional assay; remark: listed apart in the source
# [7] = target: hemagglutinin (HA) of influenza A/Michigan/45/2015 pH1N1 (influenza A virus A/Michigan/45/2015 (H1N1)); test: cell-based or functional assay; remark: listed apart in the source
compound,measurement,setting,value
CCOC(=O)C1=C[C@@H](OC(CC)CC)[C@H](NC(C)=O)[C@@H](N)C1 [oseltamivir],protection from weight loss,[1],did not protect mice from weight loss
SAB-176 (antibody),HAI titer,[2],> 2048 titer
SAB-176 Lot 1 (PD1901102QR) (antibody),HAI titer (Cell),[3],512 titer
same,HAI titer (Egg),[3],512 titer
same,HAI titer ratio of SAB-176 to hIVIG (Cell),[3],16 X
same,HAI titer ratio of SAB-176 to hIVIG (Egg),[3],16 to 32 X
same,HAI titer (Egg),[4],64 titer
same,HAI titer ratio of SAB-176 to hIVIG (Egg),[4],4 to 8 X
same,HAI titer of drug product,[2],7680 titer
same,HAI titer,[5],512 titer
same,HAI titer ratio of SAB-176 to hIVIG,[5],16 to 32 X
same,HAI titer,[6],512 titer
same,HAI titer ratio of SAB-176 to hIVIG,[6],16 X
same,HAI titer,[7],1280 titer
SAB-176 Lot 2 (PD2001010QR) (antibody),HAI titer (Cell),[3],512 titer
same,HAI titer (Egg),[3],512 titer
same,HAI titer ratio of SAB-176 to hIVIG (Cell),[3],16 X
same,HAI titer ratio of SAB-176 to hIVIG (Egg),[3],16 to 32 X
same,HAI titer (Egg),[4],128 titer
same,HAI titer ratio of SAB-176 to hIVIG (Egg),[4],8 to 16 X
same,HAI titer,[2],512 titer
same,HAI titer of drug product,[2],14300 titer
same,HAI titer ratio of SAB-176 to hIVIG,[2],16 X
same,HAI titer,[7],1280 titer
SAB-176 Lot 3 (antibody),HAI titer (Cell),[3],512 titer
same,HAI titer (Egg),[3],512 titer
same,HAI titer ratio of SAB-176 to hIVIG (Cell),[3],16 X
same,HAI titer ratio of SAB-176 to hIVIG (Egg),[3],16 to 32 X
same,HAI titer (Egg),[4],256 titer
same,HAI titer ratio of SAB-176 to hIVIG (Egg),[4],16 to 32 X
same,HAI titer,[2],512 titer
same,HAI titer ratio of SAB-176 to hIVIG,[2],16 X
SAB-176 Lot 4 (PD2102092QR) (antibody),HAI titer (Cell),[3],512 titer
same,HAI titer (Egg),[3],512 titer
same,HAI titer of drug product,[3],7680 titer
same,HAI titer ratio of SAB-176 to hIVIG (Cell),[3],16 X
same,HAI titer ratio of SAB-176 to hIVIG (Egg),[3],16 to 32 X
same,HAI titer (Egg),[4],256 titer
same,HAI titer ratio of SAB-176 to hIVIG (Egg),[4],16 to 32 X
same,HAI titer,[2],512 titer
same,HAI titer ratio of SAB-176 to hIVIG,[2],16 X
same,HAI titer,[5],512 titer
same,HAI titer ratio of SAB-176 to hIVIG,[5],16 to 32 X
same,HAI titer,[7],1810 titer
SAB-176 Lot 5 (PD2203294QR) (antibody),HAI titer,[7],1280 titer
SAB-176 Lot 6 (PD2204315QR) (antibody),HAI titer,[7],905 titer
negative control IgG (antibody),HAI titer (Cell),[3],< 1 titer
same,HAI titer (Egg),[3],< 1 titer
same,HAI titer (Egg),[4],< 1 titer
same,HAI titer,[2],< 1 titer
same,HAI titer,[5],< 1 titer
